According to patent JP2023092810A (dated 2023):
Where a chain is given by its changes, count along the chain named. In names and notes the source's numbering stands.

B1: OKT3 scFv (scFv, V domains shown)
VH: QVQLVQSGGGVVQPGRSLRLSCKASGYTFTRYTMHWVRQAPGKGLEWIGYINPSRGYTNYNQKVKDRFTISRDNSKNTAFLQMDSLRPEDTGVYFCARYYDDHYSLDYWGQGTPVTVSS
notes: Made in E. coli; also called OKT3 scFv(コントロール); 変異導入前のOKT3 scFv; not shown: linker, VL of OKT3 (OL) and any tag
B2: OKT3 scFv-D65N/D82aN (scFv, name in Kabat numbering, V domains shown)
VH: B1 VH with D66N, D84N
notes: not shown: linker, VL of OKT3 (OL) and any tag
B3: OKT3 scFv-D65A/D82aN (scFv, name in Kabat numbering, V domains shown)
VH: B1 VH with D66A, D84N
notes: as for B2

Each binder was assayed against プロテインA (rProtein A Sepharose Fast Flow) (UniProt P38507 37-327) (assay: rProtein A Sepharose Fast Flow column, fractions on SDS-PAGE).

Q: Does B1 bind?
A: Result: no binding

Q: Does B2 bind?
A: Result: no binding

Q: Does B3 bind?
A: Result: no binding
